Measurements from PMC5074518.

Legend:
[1] = biological target: purine nucleoside phosphorylase from Kluyveromyces lactis, 6xHis-tagged, as used in analytical gel filtration (Kluyveromyces lactis); assay: SEC; analytical size exclusion chromatography on a Superdex 200 Increase 10/300 GL column, calibrated with molecular weight marker proteins; single predominant peak at 12.5 mL
[2] = biological target: purine nucleoside phosphorylase from Kluyveromyces lactis, C-terminal 6xHis-tag variant (Kluyveromyces lactis); assay: crystal structure; C-terminal 6xHis-tag variant, 8 mg/mL in 25 mM Tris-HCl, 100 mM NaCl, pH 8.0, mixed with 0.1 M sodium acetate trihydrate pH 4.6, 8% PEG4000; space group P6(1), 1.97 Å, three molecules in the asymmetric unit

Substance | stoichiometry N [1] | stoichiometry N [2]
purine nucleoside phosphorylase from Kluyveromyces lactis, 6xHis-tagged, as used in analytical gel filtration (enzyme) | 3 | 
purine nucleoside phosphorylase from Kluyveromyces lactis, C-terminal 6xHis-tag variant (enzyme) |  | 3
